Test results: patent US11760780B2, “Targeting dimerization of BAX to modulate BAX activity” (ALBERT EINSTEIN COLLEGE OF MEDICINE, priority 2014, dated 2023)
Positions of bridges follow the written chain, without caps; N, C: chain ends. Non-standard residues stand in square brackets, D forms with d. S5 = C=CCCC[C@](C)(N)C(=O)O

Columns and labels:
Format in all cases: biochemical
[1] = biological target: T1, BAX (Homo sapiens, UniProt Q07812, P168G); assay: Liposomal permeabilization assay (ANTS/DPX release); conditions: purified BAX P168G dimer, increasing doses, maximum release at 90 min, FIG. 14B
T1 construct: made in house; host or cells: E. coli BL21 (DE3) codon+
Method: (§1) Liposomes were composed of the following molar percentages of lipids (Avanti Polar Lipids): phosphatidylcholine, 48%; phosphatidylethanolamine, 28%; phosphatidylinositol, 10%; dioleoyl phosphatidylserine, 10%; and tetraoleoyl cardiolipin, 4% and were loaded with ANTS/DPX (Molecular Probe) upon extrusion. BAX (400 nM) was combined with BIM SAHBA2 at the indicated concentrations in 96-well format (Corning) and then liposomes were added (10 μl from 50 mM total lipid stock) in assay buffer (10 mM HEPES, pH 7, 200 mM KCl, 5 mM MgCl2, and 0.2 mM EDTA) to a final volume of 100 μl. ANTS/DPX release was quantified based on the increase in fluorescence intensity that occurs when the ANTS fluorophore is separated from the DPX quencher upon release from the liposomes into the supernatant. Fluorescence (λex=355 nm and λem=520 nm) was measured over time at 30° C. using a Tecan Infinite M1000 plate reader. The percentage release of ANTS/DPX at 90 min was calculated as percentage release=((F−F0)/(F100−F0))×100, where F0 and F100 are baseline and maximal fluorescence, respectively. 1% Triton treatment is used to determine the maximum amount of liposomal release per assay, and this value sets the 100% value.

[2] = biological target: T2, BAX (Homo sapiens, UniProt Q07812); assay: as above
T2 construct: made in house; host or cells: E. coli BL21 (DE3) codon+
Method: as §1

[3] = biological target: T3, BAX 4MA dimer (Homo sapiens, UniProt Q07812, C126S/C62S/I136C/V121C); assay: BAX dimer dissociation / oligomerization by size exclusion chromatography; conditions: FIG. 14A
T3 construct: made in house; host or cells: E. coli BL21 (DE3) codon+
Method: Superdex 75 10/300 GL and 200 10/300 GL (GE Healthcare) columns were used for size exclusion chromatography of recombinant proteins and cell extracts. Recombinant protein was injected in columns equilibrated with a buffer containing 20 mM HEPES pH 7.2, 150 mM KCl, 1 mM DTT. 1 mg of cytosolic or membrane extracts was applied to a Superdex 200 10/300 GL equilibrated in buffer containing 10 mM Tris, pH 7.5, 1 mM EGTA, 200 mM Sucrose and Complete Protease Inhibitors. Fractions of 500 μl were collected, and 30 μl of each fraction was analyzed by SDS-PAGE and immunoblotting. All operations were run at 4° C. Gel filtration molecular weight markers (GE Healthcare) were also subjected to the columns to obtain a standard curve for the estimation of the molecular weight of the proteins.
BAX wild type and mutants were concentrated to ˜0.5 mM in BAX buffer (10 mM HEPES pH 7, 150 mM KCl, 1 mM DTT) and incubated at 20° C. for 1-3 days before diluting to a total volume of 250 μl and loaded onto a Superdex 75 HR 10/30 size exclusion column (GE Healthcare). These conditions allow a controlled dimerization process than aggregation due to BAX activation. Separation of monomeric and dimeric BAX was achieved using a flow rate of 0.5 ml/min at 4° C. The chromatogram traces show the monomeric and dimeric peaks at ˜11.8 and ˜10.4 ml, respectively. […]

T2 sequence (Q07812 whole entry): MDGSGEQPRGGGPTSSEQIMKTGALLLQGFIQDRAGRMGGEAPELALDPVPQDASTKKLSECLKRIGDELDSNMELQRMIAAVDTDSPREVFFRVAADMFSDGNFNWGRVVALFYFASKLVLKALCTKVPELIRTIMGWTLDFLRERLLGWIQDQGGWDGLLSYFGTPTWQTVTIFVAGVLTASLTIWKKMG
T3 sequence (Q07812 whole entry C62S/V121C/C126S/I136C): as the sequence (Q07812 whole entry) above, with C62S, V121C, C126S, I136C counted along it
T1 sequence (Q07812 whole entry P168G): as the sequence (Q07812 whole entry) above, with P168G counted along it

activation of BAX P168G dimer compared to BAX WT dimer [1]: more resistant to activation | membrane permeabilization by BAX dimer upon addition of activator ([2]; SEC-isolated BAX dimer, liposomes, FIG. 1D): nearly inactive | doses required to activate BAX WT dimer versus dose that fully activates BAX WT monomer ([2]; purified BAX WT dimer, maximum release at 90 min, FIG. 14B): significantly higher
Substance: N-acetylated^145EIWIAQELRS5IGDS5FNAYYA^164-CONH2 (Ac-EIWIAQELR[S5]IGD[S5]FNAYYA-NH2; staple 10-14; SMILES CC[C@H](C)[C@H](NC(=O)[C@H](Cc1c[nH]c2ccccc12)NC(=O)[C@@H](NC(=O)[C@H](CCC(=O)O)NC(C)=O)[C@@H](C)CC)C(=O)N[C@@H](C)C(=O)N[C@@H](CCC(N)=O)C(=O)N[C@@H](CCC(=O)O)C(=O)N[C@@H](CC(C)C)C(=O)N[C@@H](CCCNC(=N)N)C(=O)N[C@@]1(C)CCCC=CCCC[C@@](C)(C(=O)N[C@@H](Cc2ccccc2)C(=O)N[C@@H](CC(N)=O)C(=O)N[C@@H](C)C(=O)N[C@@H](Cc2ccc(O)cc2)C(=O)N[C@@H](Cc2ccc(O)cc2)C(=O)N[C@@H](C)C(N)=O)NC(=O)[C@H](CC(=O)O)NC(=O)CNC(=O)[C@H]([C@@H](C)CC)NC1=O) [BIM SAHBA2, Hydrocarbon-stapled peptide corresponding to the BH3 domain of BIM]
membrane permeabilization by BAX monomer upon addition of activator ([2]; SEC-isolated BAX monomer, liposomes, FIG. 1D): activated and induced membrane permeabilization | activation of BAX 4MA monomer to induce BAX oligomerization ([3]; in the presence of reducing agent (DTT)): can also activate BAX 4MA monomer to induce BAX oligomerization | competition and dissociation of BAX 4MA dimer to monomer ([3]; isolated BAX 4MA dimer, high doses, Superdex 75 SEC): can compete and dissociate the dimer into monomers
